Data as given in the supplement of paper PMC9732359.
± gives the uncertainty stated by the source.

Experiment: protein stability index of a GFP-peptide fusion (yeast GPS) (PSI 1-4); higher = more stable; sorted into four equal gates, so the index is relative within each strain
Procedure, shortened: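 Plasmids isolated from each sorting gate were PCR-amplified and Illumina-sequenced, and barcodes assigned the reads to strains. The gates, four of equal size, were set by GFP/Cherry fluorescence ratio on mid-log cultures in leucine-free medium. These cultures were yeast carrying a pooled library of tiled 17-residue yeast protein peptides fused downstream of GFP on a plasmid that also expresses Cherry. The protein stability index is the sum of every gate's read frequency times its gate number.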

Sequence | protein stability index (doa10∆) | protein stability index (pdr5∆) | protein stability index (san1∆) | protein stability index (ubr1∆)
ERKLKFSNRFLPVASPF [FAS1] | 3.02 ± 0.12 | 3.16 ± 0.11 | 2.91 ± 0.094 | 2.85 ± 0.099
ERKRKSVRGAIVGPDLA [RPS6A] | 3.38 ± 0.091 | 3.34 ± 0.075 | 3.33 ± 0.055 | 3.01 ± 0.13
ERLDKDKDRDTRRKRRQ [SNF5] | 2.82 ± 0.13 | 3.27 ± 0.21 | 2.9 ± 0.11 | 3.46 ± 0.13
ERLVEFSNVNELQEKNV [YIL149C/MLP2] | 3.31 ± 0.23 | 3.36 ± 0.24 |  | 3.1 ± 0.2
ERQMNFLTNELIRLQME [SWI3] | 3.07 ± 0.11 | 3.12 ± 0.072 | 3.22 ± 0.048 | 3.09 ± 0.069
ERSYPSEFANQNQGGAQ [ROX3] | 2.98 ± 0.083 | 3.07 ± 0.092 | 2.96 ± 0.066 | 3.17 ± 0.061
ERVPKTQLDKLRPRKDS [SMB1] | 3.1 ± 0.051 | 3.07 ± 0.062 | 3.09 ± 0.032 | 3.17 ± 0.045
ERVTALKNCKISNINIP [SMC1] | 3.25 ± 0.1 | 3.25 ± 0.12 | 3.1 ± 0.066 | 3.41 ± 0.11
ERYFDCCTKFFTMMTSE [PCI8] | 2.38 ± 0.059 | 2.44 ± 0.071 | 2.35 ± 0.07 | 2.29 ± 0.045
ESDGRMFIEEPTRMVRV [SRP54] | 2.77 ± 0.082 | 2.99 ± 0.11 | 2.83 ± 0.099 | 2.73 ± 0.054
ESEEAETKDIRKQIQLL [SRB4] | 2.53 ± 0.081 | 2.94 ± 0.086 | 2.5 ± 0.062 | 2.71 ± 0.075
ESFTEELSNELSRLSTA [MED1] | 3.25 ± 0.066 | 3.12 ± 0.066 | 3.05 ± 0.053 | 3.21 ± 0.034
ESITKAMEFIFGNSLIC [SMC2] | 2.46 ± 0.071 | 1.55 ± 0.066 | 1.39 ± 0.092 | 1.89 ± 0.046
ESITYQKIMILQRTILN [RGR1] | 1.61 ± 0.069 | 1.69 ± 0.06 | 1.49 ± 0.099 | 2.06 ± 0.065
ESLILKWDNQSASRAKN [RGR1] | 3.16 ± 0.05 | 3.24 ± 0.055 | 2.9 ± 0.05 | 3.09 ± 0.052
ESLREIPYGPDFDNIEF [SEC65] | 3.1 ± 0.072 | 3.12 ± 0.067 | 2.92 ± 0.087 | 3.04 ± 0.057
ESLYDLIEFQPSQGVHY [MED6] | 2.84 ± 0.078 | 2.87 ± 0.061 | 2.91 ± 0.051 | 2.7 ± 0.051
ESMLHLSIWIKNYPEYF [IRR1] | 2.17 ± 0.046 | 2.06 ± 0.038 | 2.25 ± 0.061 | 2.2 ± 0.043
ESMSYLPDPILKNFLSY [MCD1] | 2.34 ± 0.13 | 2.79 ± 0.12 | 2.5 ± 0.14 | 2.51 ± 0.098
ESNRQSVIVDSKVTVPP [ESC2] | 2.47 ± 0.11 | 2.87 ± 0.082 | 2.81 ± 0.079 | 2.81 ± 0.048
ESSFIEIDDTEAEVTAE [BRR2] | 3.01 ± 0.068 | 3.1 ± 0.088 | 2.98 ± 0.11 | 3.06 ± 0.052
ESSLTISLYFNDILDEL [ECM29] | 1.89 ± 0.06 | 2.25 ± 0.051 | 2.38 ± 0.07 | 2.4 ± 0.061
ESSYTEVTKLLKNEGID [SMC4] | 3.1 ± 0.082 | 3.17 ± 0.15 |  | 3.49 ± 0.098
ESTAGSASTSATGISGS [ECM29] | 3.31 ± 0.046 | 3.35 ± 0.053 | 3.12 ± 0.035 | 3.277 ± 0.032
ESTETGYVIKVFNNGIV [DIS3] | 2.34 ± 0.19 | 3.08 ± 0.21 | 2.13 ± 0.14 | 1.21 ± 0.24
ESWANQLTVCGAIIGWT [FAS2] | 1.13 ± 0.041 | 1.3 ± 0.038 | 1.2 ± 0.088 | 1.44 ± 0.037
ESWFKALAGSEINWRHA [FAS1] | 3.31 ± 0.11 | 2.54 ± 0.081 | 2.63 ± 0.083 | 2.59 ± 0.057

Sequence | protein stability index (doa10∆) | protein stability index (pdr5∆) | protein stability index (san1∆) | protein stability index (ubr1∆)
ETASFIPTKESLTRDFE [YIL149C/MLP2] | 2.83 ± 0.068 | 3.09 ± 0.075 | 2.41 ± 0.077 | 2.72 ± 0.046
ETDHANTENNDPDIPMT [IRR1] | 2.74 ± 0.09 | 2.59 ± 0.066 | 2.81 ± 0.048 | 2.68 ± 0.07
ETDNEMNGNGKPGIPRG [SIR3] | 3.16 ± 0.099 | 3.11 ± 0.083 | 3.39 ± 0.053 | 2.99 ± 0.1
ETEAEEDHMLKKIENTM [RPO21] |  | 3.37 ± 0.18 |  | 3.46 ± 0.15
ETELFEPGVLNTGDGSI [ECM29] | 3.25 ± 0.15 | 3.2 ± 0.11 | 2.92 ± 0.12 | 3.07 ± 0.11
ETENSESIASSNTYKEE [MCD1] |  | 2.55 ± 0.29 |  | 2.89 ± 0.074
ETFISSMTATADVLAMA [RIP1] | 1.93 ± 0.11 | 2.48 ± 0.097 | 3.13 ± 0.077 | 1.44 ± 0.054
ETGKLLSGLAQRKTNGA [BRN1] |  |  | 2.97 ± 0.11 | 
ETGNFSWASEGISKKTR [RPS8A] | 3.15 ± 0.037 | 3.267 ± 0.028 | 3.206 ± 0.028 | 3.228 ± 0.025
ETISNVAKTAPNSNKTH [SNF2] | 2.96 ± 0.055 | 3 ± 0.061 | 2.96 ± 0.035 | 3.07 ± 0.045
ETKADGILLETISVPQI [RRP6] | 2.58 ± 0.076 | 2.52 ± 0.056 | 2.51 ± 0.061 | 2.26 ± 0.053
ETKVDELRYQSHILNSH [DSN1] | 2.38 ± 0.067 | 2.84 ± 0.057 | 2.79 ± 0.055 | 3 ± 0.05
ETLKRDRKQSQATNATN [ARP7] | 2.69 ± 0.074 | 2.86 ± 0.082 | 2.39 ± 0.11 | 2.74 ± 0.068
ETNAKPFSFSSATSTTE [YLR335W/NUP2] | 2.18 ± 0.056 | 2.4 ± 0.053 | 2.35 ± 0.053 | 2.26 ± 0.035
ETPSRLLLSPDQWYCID [ITC1] | 2.8 ± 0.062 | 3.21 ± 0.085 | 3.16 ± 0.075 | 2.81 ± 0.051
ETQVEVEKNEIGKMYDE [NNF1] | 3.05 ± 0.19 | 3.21 ± 0.11 | 2.98 ± 0.17 | 3.37 ± 0.13
EVAIRDVNLDVRIHSIQ [IRR1] | 2.4 ± 0.06 | 2.1 ± 0.061 | 2.49 ± 0.059 | 1.68 ± 0.052
EVDEKPTETYSDVGGLD [RPT5] | 3.35 ± 0.082 | 3.3 ± 0.07 | 3.16 ± 0.058 | 3.23 ± 0.059
EVFQLRIFVKEILEKCA [GAL11] | 2.29 ± 0.12 | 2.11 ± 0.12 | 2.19 ± 0.077 | 2.12 ± 0.19
EVGDVCINELDNWNAPL [RPO31] | 3.21 ± 0.086 | 3.06 ± 0.074 | 3.21 ± 0.052 | 3.25 ± 0.053
EVRGQVPVIESAGFETD [SNU114] | 1.37 ± 0.052 | 1.59 ± 0.06 | 1.49 ± 0.15 | 1.86 ± 0.057
EVRRAAMLNLINDNNTR [YCG1] | 3.32 ± 0.12 | 3.41 ± 0.11 | 2.94 ± 0.11 | 3.13 ± 0.1
EVSCKLLETITYVLNTW [YML103C/NUP188] | 2.15 ± 0.068 | 2.35 ± 0.073 | 2.07 ± 0.11 | 2.11 ± 0.082
EVVQTGAKNIEITVVKP [PRE6] | 3.24 ± 0.098 | 3.3 ± 0.093 | 3.08 ± 0.052 | 3.04 ± 0.087
EWDLYPQGFSSVERGRK [REC8] | 3.41 ± 0.13 | 3.54 ± 0.14 | 3.44 ± 0.086 | 3.48 ± 0.12
EWFEQNNSEQDQEIVIQ [ISW2] | 3.04 ± 0.13 | 3.19 ± 0.14 | 2.45 ± 0.18 | 3.25 ± 0.093
